Measurements reported in PMC6863704 (Protein Science : A Publication of the Protein Society, 2019).

Target: the molecule itself
Assay: NMR

B1: p50 dimerization domain of NFκB1 (residues 241–351), long construct with non-native N-terminal extension (domain or fragment, mouse)
chain: VGTGSNDDDDKAPNASNLKIVRMDRTAGCVTGGEEIYLLCDKVQKDDIQIRFYEEEENGGVWEGFGDFSPTDVHRQFAIVFKTPKYKDVNITKPASVFVQLRRKSDLETSEPKPFLYYPEI
**Q.** Which “stoichiometry N” value does the source give for B1 here?
**A.** 2
